Assay results published in patent publication US20120100140A1 (Biogen, published 2012).

How the values were obtained:
CD64 (FcγRI) [1] = molecular target: T1, CD64 (FcγRI) (UniProt P12314 16-288, limits assumed); assay: solution affinity SPR: antibody titrated into CD64, inhibition of CD64 binding to immobilized IgG1 MAb; average of two titrations
T1 construct: Soluble Fc receptor used in solution; source and construct not described

CD64 (FcγRI) [2] = molecular target: T1, CD64 (FcγRI); assay: solution affinity SPR: inhibition of CD64 binding to immobilized IgG1 MAb
CD16 (FcγRIIIa V158) = molecular target: T2, CD16 (FcγRIIIa V158) (UniProt P08637 17-208, limits assumed); assay: solution affinity SPR: antibody titrated into CD16, inhibition of CD16 binding to immobilized IgG1 MAb; average of two titrations
T2 construct: V158 allotype as printed; source and construct not described; also called Fc gamma III receptor
T2 sequence (P08637 17-208 F176V limits assumed): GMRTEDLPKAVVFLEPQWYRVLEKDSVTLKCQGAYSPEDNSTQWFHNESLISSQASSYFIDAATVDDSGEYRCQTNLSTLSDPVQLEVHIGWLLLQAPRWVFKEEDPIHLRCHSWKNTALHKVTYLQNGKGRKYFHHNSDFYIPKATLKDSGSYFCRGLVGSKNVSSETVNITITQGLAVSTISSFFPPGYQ

T1 sequence (P12314 16-288 limits assumed): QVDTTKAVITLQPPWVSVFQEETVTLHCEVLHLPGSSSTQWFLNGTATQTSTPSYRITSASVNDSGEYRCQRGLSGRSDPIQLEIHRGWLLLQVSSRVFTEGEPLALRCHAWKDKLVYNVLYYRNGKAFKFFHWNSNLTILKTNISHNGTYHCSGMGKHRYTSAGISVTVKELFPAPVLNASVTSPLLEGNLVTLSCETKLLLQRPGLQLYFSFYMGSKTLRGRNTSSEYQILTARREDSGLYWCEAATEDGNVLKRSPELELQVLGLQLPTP

B1: pEAG2300 (hu5c8, IgG4 chimeric hinge + IgG1 CH3, glycosylated) (antibody)
chain 1: QVQLVQSGAEVVKPGASVKLSCKASGYIFTSYYMYWVKQAPGQGLEWIGEINPSNGDTNFNEKFKSKATLTVDKSASTAYMELSSLRSEDTAVYYCTRSDGRNDMDSWGQGTLVTVSSASTKGPSVFPLAPCSRSTSESTAALGCLVKDYFPEPVTVSWNSGALTSGVHTFPAVLQSSGLYSLSSVVTVPSSSLGTKTYTCNVDHKPSNTKVDKRVESKYGPPCPPCPAPPVAGPSVFLFPPKPKDTLMISRTPEVTCVVVDVSQEDPEVQFNWYVDGVEVHNAKTKPREEQFNSTYRVVSVLTVLHQDWLNGKEYKCKVSNKGLPSSIEKTISKAKGQPREPQVYTLPPSRDELTKNQVSLTCLVKGFYPSDIAVEWESNGQPENNYKTTPPVLDSDGSFFLYSKLTVDKSRWQQGNVFSCSVMHEALHNHYTQKSLSLSPG
chain 2: DIVLTQSPATLSVSPGERATISCRASQRVSSSTYSYMHWYQQKPGQPPKLLIKYASNLESGVPARFSGSGSGTDFTLTISSVEPEDFATYYCQHSWEIPPTFGGGTKLEIKRTVAAPSVFIFPPSDEQLKSGTASVVCLLNNFYPREAKVQWKVDNALQSGNSQESVTEQDSKDSTYSLSSTLTLSKADYEKHKVYACEVTHQGLSSPVTKSFNRGEC
- IC50 (CD64 (FcγRI) [1]): 3020 µM

B2: IgG4.P T299A (hu5c8 aglycosylated IgG4.P S228P, T299A) (antibody)
chain 1: not shown
chain 2: DIVLTQSPATLSVSPGERATISCRASQRVSSSTYSYMHWYQQKPGQPPKLLIKYASNLESGVPARFSGSGSGTDFTLTISSVEPEDFATYYCQHSWEIPPTFGGGTKLEIKRTVAAPSVFIFPPSDEQLKSGTASVVCLLNNFYPREAKVQWKVDNALQSGNSQESVTEQDSKDSTYSLSSTLTLSKADYEKHKVYACEVTHQGLSSPVTKSFNRGEC
- IC50 (CD64 (FcγRI) [1]): 739 µM

B3: EC300 (hu5c8 IgG4.P S228P, T307P, glycosylated) (antibody)
chain 1: not shown
chain 2: DIVLTQSPATLSVSPGERATISCRASQRVSSSTYSYMHWYQQKPGQPPKLLIKYASNLESGVPARFSGSGSGTDFTLTISSVEPEDFATYYCQHSWEIPPTFGGGTKLEIKRTVAAPSVFIFPPSDEQLKSGTASVVCLLNNFYPREAKVQWKVDNALQSGNSQESVTEQDSKDSTYSLSSTLTLSKADYEKHKVYACEVTHQGLSSPVTKSFNRGEC
- IC50 (CD64 (FcγRI) [2]): ~8 µM
- IC50 (CD16 (FcγRIIIa V158)): 564 µM
- IC50 (CD64 (FcγRI) [1]): 11.2 µM
